“And” between values parts separate entries of the source, which are not always exact repeats. Equal entries are not always repeated. Where two headings read alike, the source gives them in different places.
B1: MAb 1874 (antibody, V domains shown)
VH: EVQLLESGGGLIQPGGSLRLSCAASGFTVGNNYMSWVRQAPGKGLEWVSVIYSAGSTYYADSVKGRFIISRDNSKDTVYLQMNSLRVDDTAVYYCARNYYGSTMDYWGQGTLVTVSS
VL: EIVLTQSPVTLSVPPGERASLSCRASQNIYTAVAWYQQKPGQAPRLLIYGASTRATGIPARFSGGGSGTDYTLTISSLESEDFAVYHCQQWHSWPLTFGGGTKLEIK
notes: IgG1/kappa, CHO; also called H1725/L332
B2: MAb 1896 (antibody, V domains shown)
VH: EVQLVESGGGLIQPGGSLRLSCAVSGLNVSRDYMSWVRQAPGKGLEWISVIYRGGATMYADSVKGRFTISRDTSKNTVFLQMSRLKVADTAVYYCARNYYGSTLDYWGQGTLVTVSS
VL: EIVLTQSPVTLSVPPGERASLSCRASQNIYTAVAWYQQKPGQAPRLLIYNASTRATGIPARFSGGGSGTDYTLTISSLESEDFAVYHCQQWHSWPLTFGGGTKLEIK
notes: IgG1/kappa, CHO; also called H1685/L459
B3: MAb 1371 (antibody, V domains shown)
VH: EVQLVESGGGLIQPGGSLRLSCAVSGLNVSRDYMSWVRQAPGKGLEWISVIYRGGATMYADSVKGRFTISRDTSKNTVFLQMSRLKVADTAVYYCARNYYGSTHDYWGQGTLVTVSS
VL: EIVLTQSPVTLSVPPGERASLSCRASQNIYTAVAWYQQKPGQAPRLLIYGASTRATGIPARFSGGGSGTDYTLTISSLESEDFAVYHCQQWHSWPLTFGGGTKLEIK
notes: IgG1/kappa, CHO; also called H1596/L332
B4: MAb 1780 (antibody, V domains shown)
VH: EVQLVESGGGLIQPGGSLRLSCAVSGLNVSRDYMSWVRQAPGKGLEWISVIYRGGATMYADSVKGRFTISRDTSKNTVFLQMSRLKVADTAVYYCARNYYGSTLDYWGQGTLVTVSS
VL: EIVLTQSPVTLSVPPGERASLSCRASQNIYTAVAWYQQKPGQAPRLLIYGASTRATGIPARFSGGGSGTDYTLTISSLESEDFAVYHCQQWHSWPLTFGGGTKLEIK
notes: IgG1/kappa, CHO; also called H1685/L332
B5: MAb 1895 (antibody, V domains shown)
VH: EVQLVESGGGLIQPGGSLRLSCAVSGLNVSRDYMSWVRQAPGKGLEWISVIYRGGATMYADSVKGRFTISRDTSKNTVFLQMSRLKVADTAVYYCARNYYGSTHDYWGQGTLVTVSS
VL: EIVLTQSPVTLSVPPGERASLSCRASQNIYTAVAWYQQKPGQAPRLLIYNASTRATGIPARFSGGGSGTDYTLTISSLESEDFAVYHCQQWHSWPLTFGGGTKLEIK
notes: IgG1/kappa, CHO; also called H1596/L459
B6: MAb 2060 (antibody, V domains shown)
VH: EVQLVESGGGLIQPGGSLRLSCAVSGLNVSRDYMSWVRQAPGKGLEWISVIYRGGVTMYADSVKGRFTISRDTSKNTVFLQMSRLKVADTAVYYCARNYYGSTLDYWGQGTLVTVSS
VL: EIVLTQSPATLSVSPGERASLSCRASQNIYTAVAWYQQKPGQAPRLLIYNASTRATGIPARFSGGGSGTDYTLTISSLESEDFAVYHCQQWHSWPLTFGGGTKLEIK
notes: IgG1/kappa, CHO; also called H1844/L471
B7: MAb 2071 (antibody, V domains shown)
VH: EVQLVESGGGLIQPGGSLRLSCAVSGLNVSRDYMSWVRQAPGKGLEWISVIYRGGVTMYADSVKGRFTISRDTSKNTVFLQMSRLKVADTAVYYCARNYYGSTLDYWGQGTLVTVSS
VL: EIVLTQSPATLSVSPGERASLSCRASQNIYTAVAWYQQKPGQAPRLLIYNAATRATGIPARFSGGGSGTDYTLTISSLESEDFAVYHCQQWHSWPLTFGGGTKLEIK
notes: IgG1/kappa, CHO; also called H1844/L472
B8: MAb 2090 (antibody, V domains shown)
VH: EVQLVESGGGLIQPGGSLRLSCAVSGLNVSRDYMSWVRQAPGKGLEWISVIYRIGATMYADSVKGRFTISRDTSKNTVFLQMSRLKVADTAVYYCARNYYGSTLDYWGQGTLVTVSS
VL: EIVLTQSPATLSVSPGERASLSCRASQNIYTAVAWYQQKPGQAPRLLIYNAATRATGIPARFSGGGSGTDYTLTISSLESEDFAVYHCQQWHSWPLTFGGGTKLEIK
notes: IgG1/kappa, CHO; also called H1813/L472

Key:
[1] = target: T1, tumor necrosis factor alpha (TNFα) (human, UniProt P01375 77-233); assay: affinity by IC50 ELISA (so named in paragraph 380)
[2] = target: T1, tumor necrosis factor alpha (TNFα); assay: Biacore (SPR); MAb captured by immobilised goat anti-human IgG polyclonal antibody, TNFα as analyte
[3] = target: T1, tumor necrosis factor alpha (TNFα); assay: affinity by IC50 ELISA (so named in paragraph 380); remark: listed apart in the source
[4] = target: T1, tumor necrosis factor alpha (TNFα); assay: affinity by IC50 ELISA (so named in paragraph 380); remark: listed apart in the source
[5] = target: T1, tumor necrosis factor alpha (TNFα); assay: cell-based or functional assay
[6] = target: T1, tumor necrosis factor alpha (TNFα); assay: affinity by IC50 ELISA (so named in paragraph 380); remark: listed apart in the source
[7] = target: T1, tumor necrosis factor alpha (TNFα); assay: affinity by IC50 ELISA (so named in paragraph 380); remark: listed apart in the source
[8] = target: T1, tumor necrosis factor alpha (TNFα); assay: affinity by IC50 ELISA (so named in paragraph 380); remark: listed apart in the source
[9] = target: T1, tumor necrosis factor alpha (TNFα); assay: affinity by IC50 ELISA (so named in paragraph 380); remark: listed apart in the source

T1 sequence (P01375 77-233 limits assumed): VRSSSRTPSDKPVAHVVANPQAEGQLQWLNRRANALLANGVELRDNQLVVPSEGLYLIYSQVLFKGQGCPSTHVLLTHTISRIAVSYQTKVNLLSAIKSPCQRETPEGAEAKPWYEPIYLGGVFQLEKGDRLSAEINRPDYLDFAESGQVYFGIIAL

Row | Molecule | Ka [2] | Kd [2] | Affinity [3] | IC50, TNFα cytotoxicity assay (WEHI-13VAR cells) [5] | Affinity [6] | Affinity [9] | also measured
1 | Humira® (antibody) | 3.31e+10 M⁻¹ | 0.0303 nM | – | – | – | – | Affinity [1]: 0.09 nM
2 | B1 | – | – | 0.38 nM | – | – | – | Affinity [4]: 0.38 nM
3 | B2 | – | – | 0.08 nM | 0.79 nM and 0.9 nM | 0.08 nM | – | Affinity [7]: 0.08 nM
4 | B3 | – | – | 0.2 nM | 2 nM and 3.08 nM | 0.2 nM | – | Affinity [8]: 0.2 nM
5 | B4 | – | – | 0.23 nM | 1.6 nM and 3.18 nM | 0.23 nM | – | Affinity [8]: 0.23 nM
6 | B5 | – | – | 0.09 nM | 0.89 nM | 0.09 nM | – | –
7 | B6 | – | – | 0.02 nM | 0.14 nM | – | 0.02 nM | –
8 | B7 | 1.77e+11 M⁻¹ | 0.0057 nM | 0.01 nM | 0.03 nM and 0.04 nM | – | 0.01 nM | koff [2]: 3.91e-05 s⁻¹; kon [2]: 6.92e+06 M⁻¹ s⁻¹
9 | B8 | 1.2e+11 M⁻¹ | 0.0084 nM | 0.02 nM | 0.09 nM | – | 0.02 nM | koff [2]: 5.42e-05 s⁻¹; kon [2]: 6.49e+06 M⁻¹ s⁻¹
